Laboratory results reported in patent US10251942B2, “Immunity-inducing agent” (TORAY INDUSTRIES, INC., priority 2009, dated 2019).
Where a SMILES comes first, the peptide text is derived from it.

Columns and labels:
[1] = tested on: malignant brain tumor cell line T98G; test: Chromium 51 release cytotoxicity of peptide-stimulated CD8-positive T cells; type: cell-based, human; details: 10^5 T cells and 10^3 T98G cells, 4 hours
Protocol: In a 50-ml centrifuge tube, 10^5 cells of a malignant brain tumor cell line T98G, whose expression of PDS5A had been confirmed (Stein G H et al., J. Cell Physiol., 99: 43-54 (1979), purchased from ATCC), were collected, and 100 μCi of chromium 51 was added to the tube, followed by incubation at 37° C. for 2 hours. […] Thereafter, the amount of chromium 51 released from damaged tumor cells into the culture supernatant was measured, and thereby the cytotoxic activity of the CD8-positive T cells stimulated with each of the polypeptides shown in SEQ ID NOs:27 to 35 was calculated.
The cytotoxic activity was determined by, as described above, mixing 10^5 CD8-positive T cells stimulated and induced with each of the peptides of the present invention and 10^3 cells of a malignant brain tumor cell line T98G to which chromium 51 was incorporated; culturing the resultant for 4 hours; measuring the amount of chromium 51 released into the culture medium after the culturing; and calculating the cytotoxic activity of the CD8-positive T cells against T98G according to the following equation*. cytotoxic activity (%)=(Amount of chromium 51 released from T98G when CD8-positive T cells were added)/(Amount of chromium 51 released from the target cells to which 1N hydrochloric acid was added)×100. *Equation: […]

[2] = tested on: mammary gland tumor; test: Anti-tumor effect of recombinant PDS5A protein in tumor-bearing dog, mammary gland tumor; type: in vivo; details: 500 μg protein with same amount of Freund's incomplete adjuvant, regional lymph node near tumor, 3 times at 1-week intervals; tumor about 500 mm^3 (dog-derived) or 1000 mm^3 (human-derived) at administration
Protocol: The anti-tumor effect of the recombinant protein described in Example 5 below in 3 individuals of tumor-bearing patient dogs (3 individuals having a mammary gland tumor) having a tumor mass in the epidermis was evaluated. Before administration, the antibody titer against the recombinant protein in the serum of each patient dog was measured by the method described in Example 5 (3), and, as a result, an antibody titer higher than that of a healthy dog was detected.
With 500 μg (2.5 ml) each of the recombinant PDS5A proteins (dog-derived and human-derived) purified as described above, the same amount of Freund's incomplete adjuvant (manufactured by Wako Pure Chemical Industries, Ltd.) was mixed to prepare 2 kinds of therapeutic agents for cancer, each of which was administered to a regional lymph node in the vicinity of the tumor a total of 3 times at 1-week intervals. […] On the other hand, in the negative control group to which PBS(−) was administered, the tumor volume, which had been about 800 mm^3 at the time of administration of PBS, became 1625 mm^3 on Day 21 after the administration.

[3] = tested on: perianal adenocarcinoma; test: Anti-tumor effect of canine recombinant PDS5A protein in patient dog, perianal adenocarcinoma; type: in vivo; details: 500 μg protein with Freund's incomplete adjuvant, subcutaneous near tumor, 4 times at 1-week interval; tumor about 370 mm^3 at administration
Protocol: (§1) With 500 μg (2.5 ml) of the canine recombinant PDS5A protein purified as described in Example 5 below, the same amount of Freund's incomplete adjuvant (manufactured by Wako Pure Chemical Industries, Ltd.) was mixed to prepare a therapeutic agent for cancer, and this therapeutic agent was subcutaneously administered in the vicinity of the tumor in 1 individual each of patient dogs suffering from perianal adenocarcinoma and epidermal squamous cell carcinoma a total of 4 times at 1-week interval.

[4] = tested on: epidermal squamous cell carcinoma; test: Anti-tumor effect of canine recombinant PDS5A protein in patient dog, epidermal squamous cell carcinoma; type: in vivo; details: 500 μg protein with Freund's incomplete adjuvant, subcutaneous near tumor, 4 times at 1-week interval; tumor about 280 mm^3 at administration
Protocol: as §1

Molecule | cytotoxic activity of stimulated CD8-positive T cells against T98G [1] | day on which complete regression of the tumor was achieved [2] [days] | day on which complete regression of the tumor was achieved [3] [days] | day on which complete regression of the tumor was achieved [4] [days]
CC(C)C[C@H](NC(=O)[C@H](CCCCN)NC(=O)[C@H](Cc1ccc(O)cc1)NC(=O)[C@H](C)NC(=O)[C@H](CO)NC(=O)[C@H](CS)NC(=O)[C@H](CS)NC(=O)[C@H](CCC(N)=O)NC(=O)[C@@H](N)CC(C)C)C(=O)O [SEQ ID NO:36] (H-LQCCSAYKL-OH) | no cytotoxic activity | – | – | –
canine recombinant PDS5A protein: full-length canine PDS5A (SEQ ID NO:2) expressed in E. coli; given mixed with Freund's incomplete adjuvant (protein, listed as Canis familiaris, mixed with Freund's incomplete adjuvant) MDFTAQPKPATALCGVVSADGKIAYPPGVKEITDKITTDEMIKRLKMVVKTFMDMDQDSEDEKQQYLPLALHLASEFFLRNPNKDVRLLVACCLADIFRIYAPEAPYTSHDKLKDIFLFITRQLKGLEDTKSPQFNRYFYLLENLAWVKSYNICFELEDCNEIFIQLFRTLFSVINNSHNKKVQMHMLDLMSSIIMEGDGVTQELLDSILINLIPAHKNLNKQSFDLAKVLLKRTVQTIEACIANFFNQVLVLGRSSVSDLSEHVFDLIQELFAIDPHLLLSVMPQLEFKLKSNDGEERLAVVRLLAKLFGSKDSDLATQNRPLWQCFLGRFNDIHVPVRLESVKFASHCLMNHPDLAKDLTEYLKVRSHDPEEAIRHDVIVTIITAAKRDLALVNDQLLGFVRERTLDKRWRVRKEAMMGLAQLYKKYCLHGEAGKEAAEKVSWIKDKLLHIYYQNSIDDKLLVEKIFAQYLVPHNLETEERMKCLYYLYASLDPNAVKALNEMWKCQNMLRSHVRELLDLHKQPTSEANCSAMFGKLMTIAKNLPDPGKAQDFVKKFNQVLGDDEKLRSQLELLISPTCSCKQADVCVREIARKLANPKQPTNPFLEMVKFLLERIAPVHIDSEAISALVKLMNKSIEGTADDEEEGVSPDTAIRSGLELLKVLSFTHPTSFHSAETYESLLQCLRMEDDKVAEAAIQIFRNTGHKIETDLPQIRSTLIPILHQKAKRGTPHQAKQAVHCIHAIFTNKEVQLAQIFEPLSRSLNADVPEQLITPLVSLGHISMLAPDQFASPMKSVVANFIVKDLLMNDRSTGEKNGKLWSPDEEVSPEVLAKVQAIKLLVRWLLGMKNNQSKSANSTLRLLSAMLVSEGDLTEQKRISKSDMSRLRLAAGSAIMKLAQEPCYHEIITPEQFQLCALVINDECYQVRQIFAQKLHKALVKLLLPLEYMAIFALCAKDPVKERRAHARQCLLKNISIRREYIKQNPMATEKLLSLLPEYVVPYMIHLLAHDPDFTRSQDVDQLRDIKECLWFMLEVLMTKNENNSHAFMKKMAENIKLTKDAQSPDESKMNEKLYTVCDVALCVINSKSALCNADSPKDPVLPMKFFTQPEKDFCNDKSYISEETRVLLLTGKPKPAGVLGAVNKPLSATGRKPYVRSTGAETGSNINVNSELNPSTGNRSREQSSEAVETGVSENEENPVRIISVTPVKNIDPVKNKEINSDQTTQGNISSDRGKKRSVAAAGTENIQQKTDEKVDESGPPAPSKPRRGRRPKSESQGNATKNDDINKPLGKGRKRAAVSQESPGGLEAGNAKAPKLQDVAKKAVPAERQIDLQR | – | 13 | 35 | 42
